In article PMC10786891, “Massively parallel profiling of RNA-targeting CRISPR-Cas13d”:

T1: EsCas13d, nuclease-dead (Eubacterium siraeum, UniProt B0MS50, R295A;H300A;R849A;H854A)
T1 sequence: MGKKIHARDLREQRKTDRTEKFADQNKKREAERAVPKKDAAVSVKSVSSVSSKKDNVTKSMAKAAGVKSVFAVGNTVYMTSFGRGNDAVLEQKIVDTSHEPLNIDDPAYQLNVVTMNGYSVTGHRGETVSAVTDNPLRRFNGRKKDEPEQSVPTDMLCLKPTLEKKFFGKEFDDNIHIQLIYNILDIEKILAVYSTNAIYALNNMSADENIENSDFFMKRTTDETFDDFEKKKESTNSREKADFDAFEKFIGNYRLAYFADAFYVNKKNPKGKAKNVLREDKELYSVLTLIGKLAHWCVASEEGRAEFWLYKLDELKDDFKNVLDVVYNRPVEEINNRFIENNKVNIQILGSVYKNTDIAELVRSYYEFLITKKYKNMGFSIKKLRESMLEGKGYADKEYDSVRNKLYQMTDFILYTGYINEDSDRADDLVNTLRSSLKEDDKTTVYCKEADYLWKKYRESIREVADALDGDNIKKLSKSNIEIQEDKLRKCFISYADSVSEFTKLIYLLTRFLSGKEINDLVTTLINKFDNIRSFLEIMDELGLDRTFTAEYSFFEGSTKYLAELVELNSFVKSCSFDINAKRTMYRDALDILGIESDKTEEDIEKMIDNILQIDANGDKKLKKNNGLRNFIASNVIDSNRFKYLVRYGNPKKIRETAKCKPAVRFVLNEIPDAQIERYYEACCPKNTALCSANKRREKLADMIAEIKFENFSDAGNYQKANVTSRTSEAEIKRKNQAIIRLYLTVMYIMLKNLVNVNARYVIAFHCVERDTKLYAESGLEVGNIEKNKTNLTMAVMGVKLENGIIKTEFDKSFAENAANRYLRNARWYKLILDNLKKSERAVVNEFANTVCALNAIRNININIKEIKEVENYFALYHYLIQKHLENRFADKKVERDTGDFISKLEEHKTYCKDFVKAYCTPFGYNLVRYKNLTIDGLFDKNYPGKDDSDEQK

B1: target 1 insG 3' of 8,insC 3' of 1 (mixed)
RNA 1: CACCCGUGCAAAAAUGCAGGGGUCUAAAACUGAGCGGAUAACCUCUCUAUGG
RNA 2: GGGAAUGGAUCCACAUCUACGAAUUCGUACCAUAGAGAGGUUAUGCCGCUCACCCGAGAUCGGAAGAGCACACGU
B2: target 1 insC 3' of 3,insC 3' of 1 (mixed)
RNA 1: CACCCGUGCAAAAAUGCAGGGGUCUAAAACUGAGCGGAUAACCUCUCUAUGG
RNA 2: GGGAAUGGAUCCACAUCUACGAAUUCGUACCAUAGAGAGGUUAUCCGCUCCACCCGAGAUCGGAAGAGCACACGU
B3: target 1 insG 3' of 22,insA 3' of 4 (mixed)
RNA 1: CACCCGUGCAAAAAUGCAGGGGUCUAAAACUGAGCGGAUAACCUCUCUAUGG
RNA 2: GGGAAUGGAUCCACAUCUACGAAUUCGUACGCAUAGAGAGGUUAUCCGCAUCACCGAGAUCGGAAGAGCACACGU
B4: target 1 U3C,C7A (mixed)
RNA 1: CACCCGUGCAAAAAUGCAGGGGUCUAAAACUGAGCGGAUAACCUCUCUAUGG
RNA 2: GGGAAUGGAUCCACAUCUACGAAUUCGUACCAUAGAGAGGUUAUACGCCCACCGAGAUCGGAAGAGCACACGU
B5: target 1 C6G,U8G (mixed)
RNA 1: CACCCGUGCAAAAAUGCAGGGGUCUAAAACUGAGCGGAUAACCUCUCUAUGG
RNA 2: GGGAAUGGAUCCACAUCUACGAAUUCGUACCAUAGAGAGGUUAGCGGCUCACCGAGAUCGGAAGAGCACACGU
B6: target 1 insC 3' of 17,insG 3' of 7 (mixed)
RNA 1: CACCCGUGCAAAAAUGCAGGGGUCUAAAACUGAGCGGAUAACCUCUCUAUGG
RNA 2: GGGAAUGGAUCCACAUCUACGAAUUCGUACCAUAGCAGAGGUUAUCGCGCUCACCGAGAUCGGAAGAGCACACGU
B7: target 1 insU 3' of 4,insA 3' of 4 (mixed)
RNA 1: CACCCGUGCAAAAAUGCAGGGGUCUAAAACUGAGCGGAUAACCUCUCUAUGG
RNA 2: GGGAAUGGAUCCACAUCUACGAAUUCGUACCAUAGAGAGGUUAUCCGCUAUCACCGAGAUCGGAAGAGCACACGU
B8: target 1 insG 3' of 14,insA 3' of 8 (mixed)
RNA 1: CACCCGUGCAAAAAUGCAGGGGUCUAAAACUGAGCGGAUAACCUCUCUAUGG
RNA 2: GGGAAUGGAUCCACAUCUACGAAUUCGUACCAUAGAGAGGGUUAUACCGCUCACCGAGAUCGGAAGAGCACACGU
B9: target 1 insU 3' of 18,insC 3' of 18 (mixed)
RNA 1: CACCCGUGCAAAAAUGCAGGGGUCUAAAACUGAGCGGAUAACCUCUCUAUGG
RNA 2: GGGAAUGGAUCCACAUCUACGAAUUCGUACCAUAUCGAGAGGUUAUCCGCUCACCGAGAUCGGAAGAGCACACGU
B10: target 1 C2U,A20U (mixed)
RNA 1: CACCCGUGCAAAAAUGCAGGGGUCUAAAACUGAGCGGAUAACCUCUCUAUGG
RNA 2: GGGAAUGGAUCCACAUCUACGAAUUCGUACCUUAGAGAGGUUAUCCGCUUACCGAGAUCGGAAGAGCACACGU
B11: target 1 insA 3' of 6,insA 3' of 3 (mixed)
RNA 1: CACCCGUGCAAAAAUGCAGGGGUCUAAAACUGAGCGGAUAACCUCUCUAUGG
RNA 2: GGGAAUGGAUCCACAUCUACGAAUUCGUACCAUAGAGAGGUUAUCCAGCUACACCGAGAUCGGAAGAGCACACGU
B12: target 1 C6G,G17U (mixed)
RNA 1: CACCCGUGCAAAAAUGCAGGGGUCUAAAACUGAGCGGAUAACCUCUCUAUGG
RNA 2: GGGAAUGGAUCCACAUCUACGAAUUCGUACCAUAUAGAGGUUAUCGGCUCACCGAGAUCGGAAGAGCACACGU
B13: target 1 C2A,G12A (mixed)
RNA 1: CACCCGUGCAAAAAUGCAGGGGUCUAAAACUGAGCGGAUAACCUCUCUAUGG
RNA 2: GGGAAUGGAUCCACAUCUACGAAUUCGUACCAUAGAGAGAUUAUCCGCUAACCGAGAUCGGAAGAGCACACGU
B14: target 1 insC 3' of 19,insG 3' of 14 (mixed)
RNA 1: CACCCGUGCAAAAAUGCAGGGGUCUAAAACUGAGCGGAUAACCUCUCUAUGG
RNA 2: GGGAAUGGAUCCACAUCUACGAAUUCGUACCAUCAGAGAGGGUUAUCCGCUCACCGAGAUCGGAAGAGCACACGU
B15: target 1 insC 3' of 3,insG 3' of 1 (mixed)
RNA 1: CACCCGUGCAAAAAUGCAGGGGUCUAAAACUGAGCGGAUAACCUCUCUAUGG
RNA 2: GGGAAUGGAUCCACAUCUACGAAUUCGUACCAUAGAGAGGUUAUCCGCUCCAGCCGAGAUCGGAAGAGCACACGU
B16: target 1 insC 3' of 12,insU 3' of 5 (mixed)
RNA 1: CACCCGUGCAAAAAUGCAGGGGUCUAAAACUGAGCGGAUAACCUCUCUAUGG
RNA 2: GGGAAUGGAUCCACAUCUACGAAUUCGUACCAUAGAGAGGCUUAUCCGUCUCACCGAGAUCGGAAGAGCACACGU
B17: target 1 insU 3' of 22,insG 3' of 7 (mixed)
RNA 1: CACCCGUGCAAAAAUGCAGGGGUCUAAAACUGAGCGGAUAACCUCUCUAUGG
RNA 2: GGGAAUGGAUCCACAUCUACGAAUUCGUACUCAUAGAGAGGUUAUCGCGCUCACCGAGAUCGGAAGAGCACACGU
B18: target 1 insA 3' of 5,insU 3' of 5 (mixed)
RNA 1: CACCCGUGCAAAAAUGCAGGGGUCUAAAACUGAGCGGAUAACCUCUCUAUGG
RNA 2: GGGAAUGGAUCCACAUCUACGAAUUCGUACCAUAGAGAGGUUAUCCGAUCUCACCGAGAUCGGAAGAGCACACGU
B19: target 1 insC 3' of 15,insG 3' of 4 (mixed)
RNA 1: CACCCGUGCAAAAAUGCAGGGGUCUAAAACUGAGCGGAUAACCUCUCUAUGG
RNA 2: GGGAAUGGAUCCACAUCUACGAAUUCGUACCAUAGAGCAGGUUAUCCGCGUCACCGAGAUCGGAAGAGCACACGU
B20: target 1 insU 3' of 21,insG 3' of 4 (mixed)
RNA 1: CACCCGUGCAAAAAUGCAGGGGUCUAAAACUGAGCGGAUAACCUCUCUAUGG
RNA 2: GGGAAUGGAUCCACAUCUACGAAUUCGUACCUAUAGAGAGGUUAUCCGCGUCACCGAGAUCGGAAGAGCACACGU
B21: target 1 G12C,C22A (mixed)
RNA 1: CACCCGUGCAAAAAUGCAGGGGUCUAAAACUGAGCGGAUAACCUCUCUAUGG
RNA 2: GGGAAUGGAUCCACAUCUACGAAUUCGUAACAUAGAGAGCUUAUCCGCUCACCGAGAUCGGAAGAGCACACGU
B22: target 1 insU 3' of 14,insA 3' of 10 (mixed)
RNA 1: CACCCGUGCAAAAAUGCAGGGGUCUAAAACUGAGCGGAUAACCUCUCUAUGG
RNA 2: GGGAAUGGAUCCACAUCUACGAAUUCGUACCAUAGAGAUGGUUAAUCCGCUCACCGAGAUCGGAAGAGCACACGU
B23: target 1 insA 3' of 22,insU 3' of 21 (mixed)
RNA 1: CACCCGUGCAAAAAUGCAGGGGUCUAAAACUGAGCGGAUAACCUCUCUAUGG
RNA 2: GGGAAUGGAUCCACAUCUACGAAUUCGUACACUAUAGAGAGGUUAUCCGCUCACCGAGAUCGGAAGAGCACACGU
B24: target 1 G17A,C22U (mixed)
RNA 1: CACCCGUGCAAAAAUGCAGGGGUCUAAAACUGAGCGGAUAACCUCUCUAUGG
RNA 2: GGGAAUGGAUCCACAUCUACGAAUUCGUAUCAUAAAGAGGUUAUCCGCUCACCGAGAUCGGAAGAGCACACGU

biological target: T1, EsCas13d, nuclease-dead; experiment: crRNA (strand 1, pre-loaded); Mg2+; 40 mM Tris-HCl pH 7.5, 150 mM NaCl, 6 mM MgCl2, 1 mM DTT, 0.1% Tween-20, 0.2 mg/ml BSA; 25 C; 10 min per concentration, then washed; details: tags: His6-TwinStrep-SUMO cleaved; N-terminal SNAP kept (SNAP-Surface 488); label: 3' end held by stalled T7 RNA polymerase

Point of comparison: B10, Kd 34 ± 4 nM. Against it:
- B1 — 2.9-fold lower, 11.6 ± 0.5 nM
- B2 — 2.2-fold lower, 15.8 ± 1.1 nM
- B3 — 1.9-fold lower, 17.9 ± 2.6 nM
- B4 — 4.2-fold lower, 8 ± 0.4 nM
- B5 — 2.7-fold lower, 12.8 ± 0.6 nM
- B6 — within error, 42 ± 7 nM
- B7 — 3.7-fold lower, 9.1 ± 0.5 nM
- B8 — 3.2-fold lower, 10.6 ± 0.4 nM
- B9 — 2.5-fold higher, 84 ± 9 nM
- B11 — 1.6-fold lower, 21.5 ± 2.2 nM
- B12 — within error, 31.4 ± 2.7 nM
- B13 — 7.4-fold lower, 4.57 ± 0.22 nM
- B14 — 2.1-fold higher, 72 ± 11 nM
- B15 — 3.1-fold lower, 11.1 ± 0.8 nM
- B16 — 2.9-fold lower, 11.6 ± 1.5 nM
- B17 — within 1.5-fold, 22.8 ± 1.6 nM
- B18 — 5.2-fold lower, 6.6 ± 0.6 nM
- B19 — 3.2-fold lower, 10.7 ± 0.6 nM
- B20 — within 1.5-fold, 24.9 ± 2.8 nM
- B21 — within 1.5-fold, 25 ± 1.1 nM
- B22 — within error, 43 ± 5 nM
- B23 — 5.6-fold lower, 6.09 ± 0.28 nM
- B24 — 1.7-fold higher, 59 ± 11 nM
